Earlier results on one substance are cited in paper PMC10304963.

For series [1], the target named is SIRPα variant 1 (Homo sapiens) (UniProt P78324).
Series [2] has as its target SIRPα variant 2 (Homo sapiens) (UniProt P78324).

The Kd is the equilibrium constant for the complex coming apart. Take CD47 (from UniProt Q08722): the Kd in series [1] was 740 nM; in series [2], 640 nM.
